Data published in publication PMC5457524, “An engineered high affinity Fbs1 carbohydrate binding protein for selective capture of N-glycans and N-glycopeptides” (Nature Communications, 2017).
No end group written: not given here. TMR = tetramethylrhodamine

T1: SNAP-Fbs1 fusion protein (wild-type human Fbs1 sugar-binding domain, residues 92-296) (human, UniProt Q9UK22 92-296)
T1 construct: Immobilised covalently through the SNAP tag on benzylguanine (BG) agarose beads in the bead assays; also called wt Fbs1; Fbs1 beads; source: NEB Express E. coli, purified (for Fbs1 beads and ITC); E. coli cell lysate (fetuin or RNase B bead pulldown); not shown: SNAP tag, N-terminal, kept
T1 sequence (looked up): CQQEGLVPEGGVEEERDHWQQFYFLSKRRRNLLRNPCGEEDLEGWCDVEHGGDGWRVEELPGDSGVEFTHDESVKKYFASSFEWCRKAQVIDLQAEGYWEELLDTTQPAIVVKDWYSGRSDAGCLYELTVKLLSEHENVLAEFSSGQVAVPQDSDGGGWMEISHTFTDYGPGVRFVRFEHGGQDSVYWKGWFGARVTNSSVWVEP

T2: fetuin (UniProt P12763 19-359, sialylated complex N-linked glycans)
T2 construct: fetuin; Denatured by boiling in Rapid PNGase F buffer, or on Affi-Gel 15 beads with 6 M guanidine-HCl; also called sialylated fetuin; fetuin beads; source: bought: New England Biolabs; denatured before the assay
T2 sequence (looked up): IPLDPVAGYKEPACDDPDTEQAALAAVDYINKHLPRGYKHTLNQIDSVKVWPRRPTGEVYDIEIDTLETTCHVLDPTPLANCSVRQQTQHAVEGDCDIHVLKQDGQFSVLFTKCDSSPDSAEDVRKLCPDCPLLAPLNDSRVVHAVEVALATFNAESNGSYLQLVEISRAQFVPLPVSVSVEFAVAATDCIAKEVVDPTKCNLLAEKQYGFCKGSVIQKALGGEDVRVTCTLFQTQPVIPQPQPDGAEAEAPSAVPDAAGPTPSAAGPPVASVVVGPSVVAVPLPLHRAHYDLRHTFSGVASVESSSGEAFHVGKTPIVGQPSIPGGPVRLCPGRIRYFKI

B1: SNAP-Fbs1 GYR variant (S155G, F173Y, E174R) (designed binder)
chain: CQQEGLVPEGGVEEERDHWQQFYFLSKRRRNLLRNPCGEEDLEGWCDVEHGGDGWRVEELPGDGGVEFTHDESVKKYFASSYRWCRKAQVIDLQAEGYWEELLDTTQPAIVVKDWYSGRSDAGCLYELTVKLLSEHENVLAEFSSGQVAVPQDSDGGGWMEISHTFTDYGPGVRFVRFEHGGQDSVYWKGWFGARVTNSSVWVEP
notes: numbered on the full-length human protein; source: E. coli, purified (for beads and N-glyco-FASP); E. coli cell lysate (fetuin bead pulldown); not shown: SNAP tag, N-terminal, kept

How the values were obtained:
[1] = biological target: B1; assay: pull-down; wt, GYR or PPRYR SNAP-Fbs1 on BG beads; mixture of denatured fetuin and RNase B; low salt (50 mM ammonium acetate pH 7.5 named for Fig. 4a); 4 °C, 1 h; SDS-PAGE; settings: both partners purified
[2] = biological target: B1; assay: pull-down; wt or GYR SNAP-Fbs1 on BG beads; TMR-labelled glycopeptides; 4 °C, 1 h; bound amount from the TMR fluorescence left in the supernatant, given as recovery percentage; low salt (50 mM NaCl or 50 mM ammonium acetate pH 7.5) or high salt (2 M NaCl); settings: both partners purified
[3] = biological target: T1, SNAP-Fbs1 fusion protein (wild-type …); assay: as above; settings: both partners purified
fetuin = biological target: T2, fetuin; assay: pull-down; fetuin (Affi-Gel 15) or RNase B (Affi-Gel 10) beads, denatured with 6 M guanidine-HCl; E. coli cell lysate with wt or mutant SNAP-Fbs1; 20 mM Tris.HCl pH 7.5, 1 mM EDTA, 50 mM NaCl (low salt) or 2 M NaCl (high salt), 30% Protein-Free Blocking buffer; 4 °C, 1 h; SDS-PAGE, ImageJ; settings: one partner purified
[4] = biological target: T1, SNAP-Fbs1 fusion protein (wild-type …); assay: ITC; 270 μM SGP injected into 27 μM SNAP-Fbs1; 20 mM Tris.HCl pH 7.5, 1 mM EDTA, 2 M NaCl (high salt); single site binding model; settings: both partners purified
[5] = biological target: B1; assay: affinity purification with mass spectrometry; wt Fbs1 or Fbs1 GYR enrichment from a tryptic digest of RNase B spiked with SGP and SGP-TMR; low salt (50 mM ammonium acetate, pH7.5); LC-MS, SGP-TMR by fluorescence; settings: both partners purified
[6] = biological target: T1, SNAP-Fbs1 fusion protein (wild-type …); assay: ITC; 270 μM SGP injected into 27 μM SNAP-Fbs1; 20 mM Tris.HCl pH 7.5, 1 mM EDTA, 50 mM NaCl (low salt); single site binding model; settings: both partners purified

| binding result [2] | fold change of the pulled-down amount against wt Fbs1 (fetuin) | Binder | other results |
| --- | --- | --- | --- |
|  |  | RNase B (natural protein, UniProt P61823 27-150, looked up, a single site modified by a variety of high-mannose N-glycans, RNase B, the N-glycosylated form of pancreatic ribonuclease; Denatured by boiling (SDS/DTT or Rapid PNGase F buffer), or on Affi-Gel 10 beads with 6 M guanidine-HCl; source: bought: New England Biolabs; denatured before the assay) KETAAAKFERQHMDSSTSAASSSNYCNQMMKSRNLTKDRCKPVNTFVHESLADVQAVCSQKNVACKNGQTNCYQSYSTMSITDCRETGSSKYPNCAYKTTQANKHIIVACEGNPYVPVHFDASV | binding result [1]: binds |
| binds |  | K(TMR)VAN(bi‑antennary complex N‑glycan, terminal sialic acids)K(TMR)T (peptide of SGP; also called glycopeptide 1) [SGP-TMR (SGP labelled with two TMR fluorophores on the lysines)] |  |
| binds |  | K(TMR)VAN(N‑glycan pentasaccharide core)K(TMR)T (peptide of SGP; also called glycopeptide 4; source: SGP-TMR trimmed with α2-3,6,8 Neuraminidase, β1-4 Galactosidase S and β-N-Acetylglucosaminidase S) [SGP-TMR without sialic acids, galactose and GlcNAc] | fold improvement in recovery (against untrimmed SGP-TMR) [3]: ≥ 3 fold |
|  | ≥ 3.5 fold | B1 |  |
|  | 2 fold | SNAP-Fbs1 S155G mutant (domain or fragment, human, UniProt Q9UK22 92-296, looked up, numbered on the full-length human protein; source: E. coli cell lysate; not shown: SNAP tag, N-terminal, kept) CQQEGLVPEGGVEEERDHWQQFYFLSKRRRNLLRNPCGEEDLEGWCDVEHGGDGWRVEELPGDGGVEFTHDESVKKYFASSFEWCRKAQVIDLQAEGYWEELLDTTQPAIVVKDWYSGRSDAGCLYELTVKLLSEHENVLAEFSSGQVAVPQDSDGGGWMEISHTFTDYGPGVRFVRFEHGGQDSVYWKGWFGARVTNSSVWVEP |  |
|  | ≥ 3.5 fold | SNAP-Fbs1 PPRYR variant (combination of PPR and YR) (designed binder, numbered on the full-length human protein; source: E. coli, purified (for beads); E. coli cell lysate (fetuin bead pulldown); not shown: SNAP tag, N-terminal, kept) CQQEGLVPEGGVEEERDHWQQFYFLSKRRRNLLRNPCGEEDLEGWCDVEHGGDGWRVEELPGPPRVEFTHDESVKKYFASSYRWCRKAQVIDLQAEGYWEELLDTTQPAIVVKDWYSGRSDAGCLYELTVKLLSEHENVLAEFSSGQVAVPQDSDGGGWMEISHTFTDYGPGVRFVRFEHGGQDSVYWKGWFGARVTNSSVWVEP |  |
|  | 1.5 fold | SNAP-Fbs1 S155A mutant (domain or fragment, human, UniProt Q9UK22 92-296, looked up, numbered on the full-length human protein; source: E. coli cell lysate; not shown: SNAP tag, N-terminal, kept) CQQEGLVPEGGVEEERDHWQQFYFLSKRRRNLLRNPCGEEDLEGWCDVEHGGDGWRVEELPGDAGVEFTHDESVKKYFASSFEWCRKAQVIDLQAEGYWEELLDTTQPAIVVKDWYSGRSDAGCLYELTVKLLSEHENVLAEFSSGQVAVPQDSDGGGWMEISHTFTDYGPGVRFVRFEHGGQDSVYWKGWFGARVTNSSVWVEP |  |
| binds |  | K(TMR)VANK(TMR)T (not fully specified (residue 4), peptide of SGP; also called glycopeptide 3; source: SGP-TMR trimmed with α2-3,6,8 Neuraminidase and β1-4 Galactosidase S) [SGP-TMR without sialic acids and galactose] |  |
|  |  | KVAN(bi‑antennary complex N‑glycan, terminal sialic acids)KT (naturally occurring glycopeptide of six amino acids; source: bought: Fushimi Pharmaceutical Co., Ltd) [sialylglycopeptide (SGP)] | Kd [4]: 1400 ± 40 nM; binding result [5]: binds; Kd [6]: 3000 nM |
